In EP0873354B1:

What was measured:
[1] = biological target: rat liver AMPK α1 isoform (affinity purified α1 AMPK, native enzyme) (rat) (UniProt P54645); assay: peptide substrate affinity chromatography of rat liver preparations, single pass
[2] = biological target: rat liver AMPK α1 isoform (affinity purified α1 AMPK, native enzyme) (rat) (UniProt P54645); assay: peptide substrate affinity chromatography of rat liver preparations, with recycling

Chain of UniProt P54645 (P54645 whole entry, form in doubt, chain 1 of 2, canonical isoform): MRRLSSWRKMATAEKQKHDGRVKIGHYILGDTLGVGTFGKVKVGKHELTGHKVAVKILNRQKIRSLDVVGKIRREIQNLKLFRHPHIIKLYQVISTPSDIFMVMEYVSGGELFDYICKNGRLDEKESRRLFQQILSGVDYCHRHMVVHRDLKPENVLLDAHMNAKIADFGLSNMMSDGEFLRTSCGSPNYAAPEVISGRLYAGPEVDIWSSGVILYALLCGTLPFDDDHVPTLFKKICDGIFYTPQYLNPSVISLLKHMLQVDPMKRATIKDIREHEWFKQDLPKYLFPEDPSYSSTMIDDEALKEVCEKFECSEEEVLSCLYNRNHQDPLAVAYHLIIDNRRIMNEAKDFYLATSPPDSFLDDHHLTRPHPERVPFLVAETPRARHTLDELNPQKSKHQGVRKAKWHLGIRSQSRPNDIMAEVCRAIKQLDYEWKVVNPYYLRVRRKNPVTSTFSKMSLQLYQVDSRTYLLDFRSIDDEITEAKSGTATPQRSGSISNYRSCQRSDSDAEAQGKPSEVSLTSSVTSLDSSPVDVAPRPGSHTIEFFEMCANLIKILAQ
Chain of UniProt P54645 (P80385 whole entry, form in doubt, chain 2 of 2, further chain, canonical isoform): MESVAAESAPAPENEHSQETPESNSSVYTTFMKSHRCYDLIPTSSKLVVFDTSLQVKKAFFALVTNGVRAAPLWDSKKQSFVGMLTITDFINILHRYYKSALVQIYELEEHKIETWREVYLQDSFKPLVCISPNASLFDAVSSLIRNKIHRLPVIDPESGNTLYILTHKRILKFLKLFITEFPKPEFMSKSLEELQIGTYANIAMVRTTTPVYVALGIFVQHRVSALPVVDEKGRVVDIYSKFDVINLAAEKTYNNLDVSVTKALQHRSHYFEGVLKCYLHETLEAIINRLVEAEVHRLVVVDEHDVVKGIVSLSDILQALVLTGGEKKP

ADR1 (222-234)P229 peptide
proportion of SAMS peptide phosphotransferase activity bound to the peptide affinity column with a single pass [1]: 90 to 92%
proportion of SAMS peptide phosphotransferase activity bound to the column with recycling [2]: 94%
